Assays:
[1] = target: DNAX Leukocyte Associated Immunoglobulin-like Receptor (DLAIR-1), the DX26 antigen, product of the YE01 gene (human) (UniProt Q6GTX8); assay: flow cytometry on Peer T cell tumor cells (DLAIR-positive), PE goat-anti-mouse-IgG second step
[2] = target: DNAX Leukocyte Associated Immunoglobulin-like Receptor (DLAIR-1), the DX26 antigen, product of the YE01 gene (human) (UniProt Q6GTX8); assay: flow cytometry on Jurkat T cell tumor cells (DLAIR-positive), PE goat-anti-mouse-IgG second step
[3] = target: DNAX Leukocyte Associated Immunoglobulin-like Receptor (DLAIR-1), the DX26 antigen, product of the YE01 gene (human) (UniProt Q6GTX8); assay: flow cytometry on HL60 promyeloid tumor cells (DLAIR-positive), PE goat-anti-mouse-IgG second step
[4] = target: DNAX Leukocyte Associated Immunoglobulin-like Receptor (DLAIR-1), the DX26 antigen, product of the YE01 gene (human) (UniProt Q6GTX8); assay: flow cytometry on Molt4 T cell tumor cells (DLAIR-positive), PE goat-anti-mouse-IgG second step
[5] = target: DNAX Leukocyte Associated Immunoglobulin-like Receptor (DLAIR-1), the DX26 antigen, product of the YE01 gene (human) (UniProt Q6GTX8); assay: flow cytometry on CEM T cell tumor cells (DLAIR-positive), PE goat-anti-mouse-IgG second step
[6] = target: DNAX Leukocyte Associated Immunoglobulin-like Receptor (DLAIR-1), the DX26 antigen, product of the YE01 gene (human) (UniProt Q6GTX8); assay: flow cytometry on U937 myeloid tumor cells (DLAIR-positive), PE goat-anti-mouse-IgG second step
[7] = target: DNAX Leukocyte Associated Immunoglobulin-like Receptor (DLAIR-1), the DX26 antigen, product of the YE01 gene (human) (UniProt Q6GTX8); assay: flow cytometry on HUT78 T cell tumor cells, PE goat-anti-mouse-IgG second step
[8] = target: DNAX Leukocyte Associated Immunoglobulin-like Receptor (DLAIR-1), the DX26 antigen, product of the YE01 gene (human) (UniProt Q6GTX8); assay: flow cytometry on CEM T cell tumor cells, PE goat-anti-mouse-IgG second step
[9] = target: DNAX Leukocyte Associated Immunoglobulin-like Receptor (DLAIR-1), the DX26 antigen, product of the YE01 gene (human) (UniProt Q6GTX8); assay: flow cytometry on Molt4 T cell tumor cells, PE goat-anti-mouse-IgG second step
[10] = target: DNAX Leukocyte Associated Immunoglobulin-like Receptor (DLAIR-1), the DX26 antigen, product of the YE01 gene (human) (UniProt Q6GTX8); assay: flow cytometry on HL60 promyeloid tumor cells, PE goat-anti-mouse-IgG second step
[11] = target: DNAX Leukocyte Associated Immunoglobulin-like Receptor (DLAIR-1), the DX26 antigen, product of the YE01 gene (human) (UniProt Q6GTX8); assay: flow cytometry on Jurkat T cell tumor cells, PE goat-anti-mouse-IgG second step
[12] = target: DNAX Leukocyte Associated Immunoglobulin-like Receptor (DLAIR-1), the DX26 antigen, product of the YE01 gene (human) (UniProt Q6GTX8); assay: flow cytometry on Peer T cell tumor cells, PE goat-anti-mouse-IgG second step
[13] = target: DNAX Leukocyte Associated Immunoglobulin-like Receptor (DLAIR-1), the DX26 antigen, product of the YE01 gene (human) (UniProt Q6GTX8); assay: flow cytometry on U937 myeloid tumor cells, PE goat-anti-mouse-IgG second step

Row | mean fluorescence intensity (mean fluorescence intensity) [1] | mean fluorescence intensity (mean fluorescence intensity) [2] | mean fluorescence intensity (mean fluorescence intensity) [3] | mean fluorescence intensity (mean fluorescence intensity) [4] | mean fluorescence intensity (mean fluorescence intensity) [5] | mean fluorescence intensity (mean fluorescence intensity) [6] | mean fluorescence intensity (mean fluorescence intensity) [7] | mean fluorescence intensity (mean fluorescence intensity) [8] | mean fluorescence intensity (mean fluorescence intensity) [9] | mean fluorescence intensity (mean fluorescence intensity) [10] | mean fluorescence intensity (mean fluorescence intensity) [11] | mean fluorescence intensity (mean fluorescence intensity) [12] | mean fluorescence intensity (mean fluorescence intensity) [13] | Substance
1 | < 5 | < 5 | < 5 | < 5 | < 5 | < 5 |  |  |  |  |  |  |  | control IgG1 (antibody)
2 |  |  |  |  |  |  | 25.8 | 92.7 | 30.7 | 46.9 | 47.1 | 29.1 | 49.5 | DX26 monoclonal antibody

Reference: patent publication EP2161338A1
